From patent US8455448B2, “Myostatin isoform” (Myostin Therapeutics Pty Ltd, priority 2004, dated 2013) come the findings set out here.

Common to all, as to type: cell-based, murine
The test system of assay [1] is proliferating cell nuclear antigen (PCNA). Briefly: PCNA protein in proliferating C2C12 myoblasts (Western blot). The following applies: 0.1, 1, 10 μg/ml, 48 h, FIG. 7. How it is done:
Thus, a decrease in p21 protein expression may indicate an increased cell proliferation rate. PCNA is a positive marker of cell proliferation. It is a subunit of DNA polymerase-delta during DNA replication in the cell cycle. Higher level of PCNA protein expression is associated with higher number of cells entering the DNA replication phase of the cell cycle.
C2C12 myoblasts were seeded in 10 cm diameter tissue culture plates (Nunc, Roskilde, Denmark) at a cell density of 3000 cells per cm^2 in 10 ml of Dulbecco's modified Eagle's medium (DMEM, Invitrogen, California) supplemented with foetal bovine serum (FBS, 10% v/v, Invitrogen), penicillin (1×105 IU/l, Sigma, St Louis, Mo., USA) and streptomycin (100 mg/l, Sigma) buffered with NaHCO3 containing phenol red (7.22 nmol/l) as a pH indicator, and incubated overnight at 37° C. with 5% CO2. The medium was replaced with the test medium: DMEM with 10% FBS supplemented with, 0.1, 1 or 10 μg/ml oMSV65 (n=3). The plates were then incubated at 37° C. with 5% CO2 for 48 hours. Cells were removed from the plate by trypsin treatment, washed with phosphate buffered saline (PBS, Oxoid, UK) and resuspended in 100 μl of lysis buffer (10 mM Hepes pH 7.9, 1.5 mM MgCl2, 10 mM KCl, 0.5% NP40, one Complete protease inhibitor tablet [Roche Diagnostics, USA] per 50 ml buffer). […] Band intensities were measured with a GS800 densitometer (BioRad, USA).
(A western blot detects proteins with antibodies after separation by electrophoresis.)

For a further assay, the system named is myogenin. Briefly: Myogenin protein in differentiating C2C12 myoblasts (Western blot). The following applies: 0, 0.1, 1, 10 μg/ml, 72 h in differentiation medium, FIG. 4. How it is done: (§1) To investigate whether roMSV65 regulates myoblast differentiation or myotube hypertrophy, C2C12 myoblast cultures were employed. Levels of well-established early and late molecular markers of myogenic differentiation like myogenin and dMHC were measured in the presence and absence of roMSV65 protein.
(§2) C2C12 myoblasts were seeded in 10 cm diameter tissue culture plates (Nunc, Roskilde, Denmark) at a cell density of 25,000 cells per cm^2 in 10 ml of Dulbecco's modified Eagle's medium (DMEM, Invitrogen, California) supplemented with foetal bovine serum (FBS, 10% v/v, Invitrogen), penicillin (1×10^5 IU/l, Sigma, St Louis, Mo., USA) and streptomycin (100 mg/I, Sigma) buffered with NaHCO3 containing phenol red (7.22 nmol/l) as a pH indicator, and incubated overnight at 37° C. with 5% CO2.
To study myoblast differentiation, the medium was replaced with the test medium: DMEM with 2% Horse Serum supplemented with 0, 0.1, 1 or 10 μg/ml roMSV65 in three replicates for each concentration (n=3). […]
(§3) Cells were removed from the plate by trypsin treatment, washed with phosphate buffered saline (PBS, Oxoid, UK) and resuspended in 200 μl of lysis buffer (10 mM Hepes pH 7.9, 1.5 mM MgCl2, 10 mM KCl, 0.5% NP40, one Complete protease inhibitor tablet [Roche Diagnostics, USA] per 50 ml buffer). […] Band intensities were measured with a GS800 densitometer (Bio-Rad, CA).

The test system of assay [2] is developmental myosin heavy chain (dMHC). Briefly: Developmental myosin heavy chain (dMHC) protein in C2C12 myotubes (Western blot). The following applies: FIG. 5. The procedure: as §1, §2
To study myoblast differentiation, the medium was replaced with the test medium: DMEM with 2% Horse Serum supplemented with 0, 0.1, 1 or 10 μg/ml roMSV65 in three replicates for each concentration (n=3). Plates were incubated at 37° C. with 5% CO2 for 72 hours.
as §3, with “buffer). The protein concentration was estimated using the bicinchoninic acid (BCA, Sigma, Missouri) protein assay. 20 μg of total protein was separated by SDS-PAGE (8% for MHC or 12% for myogenin) and transferred to nitrocellulose membrane by electroblotting. The blots were stained with Ponceau S stain to check equal loading.” for “buffer).”

B1: roMSV65: 65 amino acid C-terminal peptide of ovine MSV (SEQ ID NO: 49) expressed as recombinant protein in E. coli (protein)
chain: VHFYTPPYGQWIFHKERKIIFLEVYIQFCSILGEAVFKRQSKSIHFCQNFKIIACLCNTAAFRMK
modifications: Ovis aries
As for B1, the “PCNA protein levels in C2C12 myoblasts” value in assay [1] is reported as “concentration-dependent increase in PCNA protein levels”. In addition, in the assay with myogenin, the “myogenin protein levels in C2C12 myotubes” value is recorded as “dose-dependently increases myogenin protein levels”. The “increase in dMHC abundance compared to untreated controls” value in assay [2] (0.1 μg/ml roMSV65, 72 h) is 18 fold; in assay [2] (1 μg/ml roMSV65, 72 h), 20 fold; in assay [2] (10 μg/ml roMSV65, 72 h), 2 fold.
